Numbering of substitutions follows the chain as printed. Numbers in names are those of the source.
B1: mCldn3cryst P134G (domain or fragment)
chain: MSMGLEITGTSLAVLGWLCTIVCCALPMWRVSAFIGSSIITAQITWEGLWMNCVVQSTGQMQCKMYDSLLALPQDLQAARALIVVSILLAAFGLLVALVGAQATNAVQDETAKAKITIVAGVLFLLAALLTLVGVSWSANTIIRDFYNPLVPEAQKREMGAGLYVGWAAAALQLLGGALLAA
notes: also called P134G mutant; source: Sf9 insect cells (baculovirus), purified (as mCldn3cryst)
B2: mCldn3cryst P134A (domain or fragment)
chain: B1 chain with G134A
notes: also called P134A mutant; source: Sf9 insect cells (baculovirus), purified (as mCldn3cryst)

Target: the molecule itself
Test: crystal structure

Protein	binding result
B1	binds
B2	binds
